Test results taken from PMC4164012.

Target: T1, recombinant E. coli L-asparaginase II (E. coli K-12 (JM109)), P00805
T1 chain: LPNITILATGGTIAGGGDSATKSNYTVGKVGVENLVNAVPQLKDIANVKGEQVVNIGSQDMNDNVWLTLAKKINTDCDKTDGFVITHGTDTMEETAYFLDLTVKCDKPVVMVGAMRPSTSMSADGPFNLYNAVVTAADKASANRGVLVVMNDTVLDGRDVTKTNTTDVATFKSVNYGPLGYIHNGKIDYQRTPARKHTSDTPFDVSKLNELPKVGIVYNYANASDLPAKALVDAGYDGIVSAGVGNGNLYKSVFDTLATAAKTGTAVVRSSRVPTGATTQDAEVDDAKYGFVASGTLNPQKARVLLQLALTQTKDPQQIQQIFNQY
Assay: SEC; analytical HPLC gel filtration on Bio-Sep S-2000, 50 mM Tris-HCl, 10 mM NaCl, pH 7.5; 20 ul of 1.5 mg/ml injected, 1 ml/min; mass from calibration with marker proteins
Conditions: remark: other sources report otherwise

B1: recombinant E. coli L-asparaginase II, P00805 23-348 (enzyme)
chain: T1 chain
Question: With B1 as the binder, how does the stoichiometry N read?
Answer: 4
